Test results from the Immune Epitope Database (IEDB).

Assays:
[1] = target: HLA-B*27:05; assay: IEDB peptide-MHC binding, cellular MHC/competitive/radioactivity; ≥ and ≤ were set here for values at or beyond the usual limits of such assays; details: source organism: Hepacivirus hominis
[2] = target: HLA-A*80:01; assay: IEDB peptide-MHC binding, purified MHC/direct/fluorescence; filed as Kd, often an IC50 or EC50 that approximates it; ≥ and ≤ were set here for values at or beyond the usual limits of such assays
[3] = target: HLA-A*01:01; assay: IEDB peptide-MHC binding, purified MHC/competitive/fluorescence; filed as Kd, often an IC50 or EC50 that approximates it; ≥ and ≤ were set here for values at or beyond the usual limits of such assays; details: source organism: Rattus norvegicus
[4] = target: HLA-A*29:02; assay: as above; details: source organism: Rattus norvegicus
[5] = target: HLA-A*02:01; assay: IEDB peptide-MHC binding, purified MHC/competitive/radioactivity; ≥ and ≤ were set here for values at or beyond the usual limits of such assays; details: source organism: Trypanosoma cruzi
[6] = target: HLA-A*02:02; assay: IEDB peptide-MHC binding, purified MHC/competitive/radioactivity; filed as Kd, often an IC50 or EC50 that approximates it; ≥ and ≤ were set here for values at or beyond the usual limits of such assays; details: source organism: Trypanosoma cruzi
[7] = target: HLA-A*02:03; assay: as above; details: source organism: Trypanosoma cruzi
[8] = target: HLA-A*02:06; assay: as above; details: source organism: Trypanosoma cruzi
[9] = target: HLA-A*68:02; assay: as above; details: source organism: Trypanosoma cruzi
[10] = target: HLA-C*15:02; assay: IEDB peptide-MHC binding, purified MHC/direct/fluorescence; filed as Kd, often an IC50 or EC50 that approximates it; ≥ and ≤ were set here for values at or beyond the usual limits of such assays; details: source organism: Yersinia pestis Nepal516
[11] = target: HLA-A*03:19; assay: IEDB peptide-MHC binding, purified MHC/competitive/fluorescence; filed as Kd, often an IC50 or EC50 that approximates it; ≥ and ≤ were set here for values at or beyond the usual limits of such assays; details: source organism: Yersinia pestis Nepal516
[12] = target: HLA-A*24:02; assay: as above
[13] = target: HLA-A*32:07; assay: as above; details: source organism: Yersinia pestis Nepal516
[14] = target: HLA-A*32:15; assay: as above; details: source organism: Yersinia pestis Nepal516
[15] = target: HLA-A*68:23; assay: as above; details: source organism: Yersinia pestis Nepal516
[16] = target: HLA-B*15:42; assay: as above
[17] = target: HLA-B*45:06; assay: as above
[18] = target: HLA-C*04:01; assay: as above; details: source organism: Yersinia pestis Nepal516
[19] = target: HLA-C*06:02; assay: as above; details: source organism: Yersinia pestis Nepal516
[20] = target: HLA-C*14:02; assay: as above; details: source organism: Yersinia pestis Nepal516
[21] = target: HLA-C*07:02; assay: IEDB peptide-MHC binding, purified MHC/direct/fluorescence; filed as Kd, often an IC50 or EC50 that approximates it; ≥ and ≤ were set here for values at or beyond the usual limits of such assays
[22] = target: HLA-B*07:02; assay: IEDB peptide-MHC binding, purified MHC/competitive/fluorescence; filed as Kd, often an IC50 or EC50 that approximates it; ≥ and ≤ were set here for values at or beyond the usual limits of such assays; details: source organism: Yersinia pestis Nepal516
[23] = target: HLA-B*15:01; assay: as above; details: source organism: Yersinia pestis Nepal516
[24] = target: HLA-B*15:02; assay: as above; details: source organism: Yersinia pestis Nepal516
[25] = target: HLA-B*35:01; assay: as above; details: source organism: Yersinia pestis Nepal516
[26] = target: HLA-B*46:01; assay: as above; details: source organism: Yersinia pestis Nepal516
[27] = target: HLA-B*08:01; assay: as above; details: source organism: Yersinia pestis Nepal516
[28] = target: HLA-B*51:01; assay: as above; details: source organism: Yersinia pestis Nepal516
[29] = target: HLA-B*48:01; assay: as above; details: source organism: Escherichia coli B171
[30] = target: HLA-B*27:20; assay: as above
[31] = target: HLA-B*83:01; assay: as above
[32] = target: HLA-B*73:01; assay: as above; details: source organism: Salmonella enterica subsp. enterica serovar Typhimurium str. LT2
[33] = target: HLA-A*01:01; assay: IEDB peptide-MHC binding, purified MHC/direct/fluorescence; filed as Kd, often an IC50 or EC50 that approximates it; ≥ and ≤ were set here for values at or beyond the usual limits of such assays; details: source organism: Mammarenavirus lassaense
[34] = target: HLA-C*03:03; assay: as above; details: source organism: Yersinia pestis Nepal516
[35] = target: HLA-C*12:03; assay: as above; details: source organism: Yersinia pestis Nepal516
[36] = target: HLA-B*39:01; assay: IEDB peptide-MHC binding, purified MHC/competitive/fluorescence; filed as Kd, often an IC50 or EC50 that approximates it; ≥ and ≤ were set here for values at or beyond the usual limits of such assays; details: source organism: Yersinia pestis Nepal516
[37] = target: HLA-C*04:01; assay: IEDB peptide-MHC binding, purified MHC/direct/fluorescence; filed as Kd, often an IC50 or EC50 that approximates it; ≥ and ≤ were set here for values at or beyond the usual limits of such assays; details: source organism: Entamoeba dispar SAW760
[38] = source organism: Yersinia pestis Nepal516
[39] = source organism: Human herpesvirus 4 strain B95-8
[40] = source organism: Entamoeba dispar SAW760

Q: How did the IC50 [1] turn out when ARMILMTHF was run?
A: 1.1 nM

Q: What does the source list for FFGETSHNY?
A: Kd ([2]; source organism: Mus musculus): ≥ 20000 nM; Kd [3]: ≥ 20000 nM; Kd [4]: ≤ 0.1 nM

Q: FLSHNFTLV was tested. Which IC50 [5] did it give?
A: 0.61 nM

Q: And the Kd [6]?
A: 0.047 nM

Q: And the Kd [7]?
A: 0.0232 nM

Q: What about the Kd [8] of the same sequence?
A: 0.445 nM

Q: And the Kd [9]?
A: 27.1 nM

Q: For FYFNWNTPI, which Kd [10] is on record?
A: 1060 nM

Q: What about the Kd [11] of the same sequence?
A: 1420 nM

Q: What about the Kd [12, 38] of the same sequence?
A: ≤ 0.1 nM

Q: What about the Kd [13] of the same sequence?
A: 0.2 nM

Q: And the Kd [14]?
A: 7.2 nM

Q: And the Kd [15]?
A: 23.5 nM

Q: What about the Kd [16, 38] of the same sequence?
A: ≥ 5000 nM

Q: And the Kd [17, 38]?
A: ≥ 5000 nM

Q: What about the Kd [18] of the same sequence?
A: 300 nM

Q: What about the Kd [19] of the same sequence?
A: 33.9 nM

Q: And the Kd [20]?
A: ≤ 0.1 nM

Q: Which Kd [21, 38] does the source give for HLIQNPNPF here?
A: 626 nM

Q: And the Kd [22]?
A: 6500 nM

Q: What about the Kd [23] of the same sequence?
A: 30.8 nM

Q: What about the Kd [24] of the same sequence?
A: 17.3 nM

Q: And the Kd [25]?
A: 27.3 nM

Q: And the Kd [26]?
A: 8050 nM

Q: How did the Kd [22] turn out when LPFLKSLAI was run?
A: 12.6 nM

Q: What about the Kd [27] of the same sequence?
A: 105 nM

Q: What about the Kd [23] of the same sequence?
A: ≥ 20000 nM

Q: What about the Kd [25] of the same sequence?
A: 46.1 nM

Q: And the Kd [28]?
A: 841 nM

Q: For RQNLSSSEL, which Kd [29] is on record?
A: 192 nM

Q: For RRAALSGHL, which Kd [16, 39] is on record?
A: ≥ 5000 nM

Q: And the Kd [30, 39]?
A: 0.2 nM

Q: What about the Kd [17, 39] of the same sequence?
A: ≥ 5000 nM

Q: And the Kd [31, 39]?
A: ≥ 5000 nM

Q: How did the Kd [32] turn out when WRLYSPPPV was run?
A: 118 nM

Q: For YENAVWDQY, which Kd [33] is on record?
A: 537 nM

Q: And the Kd ([2]; source organism: Mammarenavirus lassaense)?
A: 463 nM

Q: YRYCHQLAL was tested. Which Kd [34] did it give?
A: 164 nM

Q: And the Kd [21, 38]?
A: 39 nM

Q: What about the Kd [35] of the same sequence?
A: 206 nM

Q: And the Kd [10]?
A: ≥ 20000 nM

Q: What about the Kd [16, 38] of the same sequence?
A: ≥ 5000 nM

Q: And the Kd [30, 38]?
A: 0.2 nM

Q: What about the Kd [36] of the same sequence?
A: 1.2 nM

Q: And the Kd [17, 38]?
A: ≥ 5000 nM

Q: What about the Kd [31, 38] of the same sequence?
A: ≥ 5000 nM

Q: And the Kd [19]?
A: 1.8 nM

Q: What does the source list for YYSNKVFPI?
A: Kd [37]: ≥ 20000 nM; Kd [21, 40]: 245 nM; Kd [12, 40]: ≤ 0.1 nM
